# Experimental data reported in patent US20250320281A1.
# Tests used:
# Experiment in all cases: cell-based or functional assay
# [1] = molecular target: HIV-1 Env of isolate 92TH021 (subtype AE) (HIV-1)
# [2] = molecular target: HIV-1 Env of isolate 92RW008 (subtype A) (HIV-1)
# [3] = molecular target: HIV-1 Env of isolate MGRM-G-025 (HIV-1)
# [4] = molecular target: HIV-1 Env of isolate MGRM-G-001 (HIV-1)
# [5] = molecular target: HIV-1 Env of isolate 94UG103 (subtype A) (HIV-1)
# [6] = molecular target: HIV-1 Env of isolate MGRM-AE-003 (subtype AE) (HIV-1)
# [7] = molecular target: HIV-1 Env of isolate MGRM-G-016 (HIV-1)
# [8] = molecular target: HIV-1 Env of isolate 92UG037 (subtype A) (HIV-1)
# [9] = molecular target: HIV-1 Env of isolate VLGCA1 (subtype A) (HIV-1)
# [10] = molecular target: HIV-1 Env of isolate MGRM-G-015 (HIV-1)
# [11] = molecular target: HIV-1 envelope glycoprotein (Env) of isolate 93TH305 (HIV-1)
# [12] = molecular target: HIV-1 envelope glycoprotein (Env) of isolate 6535.3 (HIV-1)
# [13] = molecular target: HIV-1 envelope glycoprotein (Env) of isolate CAAN.A2 (HIV-1)
# [14] = molecular target: HIV-1 Env of isolate 92WR009 (subtype A) (HIV-1)
# [15] = molecular target: HIV-1 envelope glycoprotein (Env) of isolate MGRM-Chronic-B-002 (HIV-1)
# [16] = molecular target: HIV-1 envelope glycoprotein (Env) of isolate APV_17 (HIV-1)
# [17] = molecular target: HIV-1 Env of isolate MGRM-G-014 (HIV-1)
# [18] = molecular target: HIV-1 Env of isolate MGRM-G-017 (HIV-1)
# [19] = molecular target: HIV-1 Env of isolate MGRM-AE-004 (subtype AE) (HIV-1)
# [20] = molecular target: HIV-1 Env of isolate 92UG031 (subtype A) (HIV-1)
# [21] = molecular target: HIV-1 envelope glycoprotein (Env) of isolate MGRM-Chronic-B-001 (HIV-1)
# [22] = molecular target: HIV-1 Env of isolate MGRM-G-006 (HIV-1)
# [23] = molecular target: HIV-1 Env of isolate MGRM-AE-001 (subtype AE) (HIV-1)
# [24] = molecular target: HIV-1 envelope glycoprotein (Env) of isolate MGRM-Chronic-B-003 (HIV-1)
# [25] = molecular target: HIV-1 envelope glycoprotein (Env) of isolate JR-FL (HIV-1)
# [26] = molecular target: HIV-1 Env of isolate MGRM-AE-006 (subtype AE) (HIV-1)
# [27] = molecular target: HIV-1 Env of isolate 92WR024 (subtype A) (HIV-1)
# [28] = molecular target: HIV-1 Env of isolate 92WR026 (subtype A) (HIV-1)
# [29] = molecular target: HIV-1 Env of isolate 92WR020 (subtype A) (HIV-1)
# [30] = molecular target: HIV-1 Env of isolate MGRM-AE-005 (subtype AE) (HIV-1)
# [31] = molecular target: HIV-1 Env of isolate MGRM-AE-002 (subtype AE) (HIV-1)
# [32] = molecular target: HIV-1 Env of isolate MGRM-G-028 (HIV-1)
# [33] = molecular target: HIV-1 Env of isolate MGRM-G-027 (HIV-1)
# [34] = molecular target: HIV-1 envelope glycoprotein (Env) of isolate APV_6 (HIV-1)
# [35] = molecular target: HIV-1 Env of isolate MGRM-G-024 (HIV-1)
# [36] = molecular target: HIV-1 envelope glycoprotein (Env) of isolate 92BR020 (HIV-1)
# [37] = molecular target: HIV-1 envelope glycoprotein (Env) of isolate APV_13 (HIV-1)
# [38] = molecular target: HIV-1 Env of isolate MGRM-G-004 (HIV-1)
# [39] = molecular target: HIV-1 Env of isolate 93UG077 (subtype A) (HIV-1)
# [40] = molecular target: HIV-1 envelope glycoprotein (Env) of isolate MGRM-Chronic-B-004 (HIV-1)
# [41] = molecular target: HIV-1 Env of isolate 92WR021 (subtype A) (HIV-1)
# [42] = molecular target: HIV-1 Env of isolate MGRM-G-011 (HIV-1)
# [43] = molecular target: HIV-1 Env of isolate MGRM-G-019 (HIV-1)
# [44] = molecular target: HIV-1 Env of isolate 94 KE 105 (subtype AC) (HIV-1)
# [45] = molecular target: aMLV envelope (negative control pseudovirus)
# [46] = molecular target: HIV-1 Env of isolate MGRM-G-009 (HIV-1)
# [47] = molecular target: HIV-1 Env of isolate MGRM-G-013 (HIV-1)
# [48] = molecular target: HIV-1 envelope glycoprotein (Env) of isolate MGRM-Chronic-B-008 (HIV-1)
# [49] = molecular target: HIV-1 Env of isolate CMU02 (subtype AE) (HIV-1)
# [50] = molecular target: HIV-1 Env of isolate 93WR029 (subtype A) (HIV-1)
# 4995_P16 (PGT-145) (antibody), sequence (VH): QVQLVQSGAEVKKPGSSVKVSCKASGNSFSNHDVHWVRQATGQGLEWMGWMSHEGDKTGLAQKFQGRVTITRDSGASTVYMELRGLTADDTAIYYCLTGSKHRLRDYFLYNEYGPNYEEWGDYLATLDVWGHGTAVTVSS
# 4995_P16 (PGT-145) (antibody), sequence (VL): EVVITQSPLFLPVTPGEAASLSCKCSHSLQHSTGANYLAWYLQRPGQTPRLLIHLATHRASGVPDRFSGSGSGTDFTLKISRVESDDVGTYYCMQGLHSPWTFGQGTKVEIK
substance,measurement,setting,value
4995_P16 (PGT-145) (antibody),"IC50 (µg/mL), pseudovirus neutralization",[1],0.013 µg/mL
same,"IC50 (µg/mL), pseudovirus neutralization",[2],0.4 µg/mL
same,"IC50 (µg/mL), pseudovirus neutralization",[3],> 50 µg/mL
same,"IC50 (µg/mL), pseudovirus neutralization",[4],0.028 µg/mL
same,"IC50 (µg/mL), pseudovirus neutralization",[5],0.331 µg/mL
same,"IC50 (µg/mL), pseudovirus neutralization",[6],0.552 µg/mL
same,"IC50 (µg/mL), pseudovirus neutralization",[7],0.081 µg/mL
same,"IC50 (µg/mL), pseudovirus neutralization",[8],3.15 µg/mL
same,"IC50 (µg/mL), pseudovirus neutralization",[9],8.01 µg/mL
same,"IC50 (µg/mL), pseudovirus neutralization",[10],10.5 µg/mL
same,"IC50 (µg/mL), pseudovirus neutralization",[11],0.032 µg/mL
same,"IC50 (µg/mL), pseudovirus neutralization",[12],> 50 µg/mL
same,"IC50 (µg/mL), pseudovirus neutralization",[13],7.08 µg/mL
same,"IC50 (µg/mL), pseudovirus neutralization",[14],0.026 µg/mL
same,"IC50 (µg/mL), pseudovirus neutralization",[15],3.67 µg/mL
same,"IC50 (µg/mL), pseudovirus neutralization",[16],0.488 µg/mL
same,"IC50 (µg/mL), pseudovirus neutralization",[17],0.144 µg/mL
same,"IC50 (µg/mL), pseudovirus neutralization",[18],0.205 µg/mL
same,"IC50 (µg/mL), pseudovirus neutralization",[19],0.006 µg/mL
same,"IC50 (µg/mL), pseudovirus neutralization",[20],3.22 µg/mL
same,"IC50 (µg/mL), pseudovirus neutralization",[21],3.22 µg/mL
same,"IC50 (µg/mL), pseudovirus neutralization",[22],0.286 µg/mL
same,"IC50 (µg/mL), pseudovirus neutralization",[23],20.9 µg/mL
same,"IC50 (µg/mL), pseudovirus neutralization",[24],0.045 µg/mL
same,"IC50 (µg/mL), pseudovirus neutralization",[25],30.4 µg/mL
same,"IC50 (µg/mL), pseudovirus neutralization",[26],> 50 µg/mL
same,"IC50 (µg/mL), pseudovirus neutralization",[27],0.069 µg/mL
same,"IC50 (µg/mL), pseudovirus neutralization",[28],1.45 µg/mL
same,"IC50 (µg/mL), pseudovirus neutralization",[29],0.997 µg/mL
same,"IC50 (µg/mL), pseudovirus neutralization",[30],0.967 µg/mL
same,"IC50 (µg/mL), pseudovirus neutralization",[31],1.87 µg/mL
same,"IC50 (µg/mL), pseudovirus neutralization",[32],0.046 µg/mL
same,"IC50 (µg/mL), pseudovirus neutralization",[33],0.433 µg/mL
same,"IC50 (µg/mL), pseudovirus neutralization",[34],0.104 µg/mL
same,"IC50 (µg/mL), pseudovirus neutralization",[35],0.06 µg/mL
same,"IC50 (µg/mL), pseudovirus neutralization",[36],1.05 µg/mL
same,"IC50 (µg/mL), pseudovirus neutralization",[37],0.337 µg/mL
same,"IC50 (µg/mL), pseudovirus neutralization",[38],> 50 µg/mL
same,"IC50 (µg/mL), pseudovirus neutralization",[39],> 50 µg/mL
same,"IC50 (µg/mL), pseudovirus neutralization",[40],0.023 µg/mL
same,"IC50 (µg/mL), pseudovirus neutralization",[41],1.62 µg/mL
same,"IC50 (µg/mL), pseudovirus neutralization",[42],0.028 µg/mL
same,"IC50 (µg/mL), pseudovirus neutralization",[43],0.041 µg/mL
same,"IC50 (µg/mL), pseudovirus neutralization",[44],1.32 µg/mL
same,"IC50 (µg/mL), pseudovirus neutralization",[45],> 50 µg/mL
same,"IC50 (µg/mL), pseudovirus neutralization",[46],0.982 µg/mL
same,"IC50 (µg/mL), pseudovirus neutralization",[47],> 50 µg/mL
same,"IC50 (µg/mL), pseudovirus neutralization",[48],1.9 µg/mL
same,"IC50 (µg/mL), pseudovirus neutralization",[49],1.43 µg/mL
same,"IC50 (µg/mL), pseudovirus neutralization",[50],> 50 µg/mL
